Test [1] deals with T1, human wild-type LFA-1 on cells (human, UniProt P20701 26-1170; P05107 23-769).
T1 construct: also called LFA-1 on human PBMCs
Nature of the test: inhibition of ICAM binding to human PBMCs; average of four experiments.

Test [2] concerns the target T2, mouse LFA-1 on the EL4 cell line (mouse, UniProt P24063 24-1162; P11835 24-771).
T2 construct: whole, on cells; also called Mouse EL4 Cell line
Nature of the test: binding to EL4 cell line, no treatment.

For a further test, the target named is T3, rabbit LFA-1 on PBMCs (rabbit, UniProt A0A5F9C4C9 27-1127; A0A5F9CF43 23-747).
T3 construct: whole, on cells; also called rabbit PBMCs
Nature of the test: flow cytometry on PBMCs, no treatment. The procedure:
Whole blood from healthy animals (rat, sheep, rabbit, dog, rhesus monkey, cynomologus monkey and chimpanzee) were obtained from Valley Biomedical Products and Services, Inc. PBMCs were isolated from whole blood and cultured in low adherent 6-well plates overnight in RPMI 1640 with 10% FBS, 1× Pen/Strep. PBMCs were harvested, washed once with Hanks' Balanced Salt Solution (HBSS) 1×, 20 mM HEPES buffer containing 10 mM EDTA, and then twice with HBS. Cells were resuspended in HBSS at 2×10⁶ cells/ml, 100 μl aliquots per well were added into 96-well plates (Costar round bottom). After spinning down, cell pellets were resuspended in 50 μl activating buffer (HBSS, 10 mM MgCl₂, 2 mM EGTA) or inactivating buffer (HBSS, 2 mM CaCl₂, 2 mM MgCl₂). For certain wells, PMA or DTT was added to a final concentration of 10 ng/ml or 500 μM, respectively. Cells were then incubated at 37° C. for 20 minutes.
Antibodies that recognized CD-11a from the particular species (human, sheep, dog, rat, rabbit) (1:100 dilution) were used as positive controls. […] Cells were incubated at 4° C. for 30 minutes, then washed twice with 220 μl/well HBSS containing 0.05% NaN₃, resuspended in 200 μl/well HBSS and analyzed using the GUAVA EXPRESS™ protocol (Guava Technologies, Inc., Hayward Calif.).
In general terms: Flow cytometry measures light scatter and fluorescence of single cells or particles in a stream.

T2 sequence (P24063 24-1162, chain 1 of 2): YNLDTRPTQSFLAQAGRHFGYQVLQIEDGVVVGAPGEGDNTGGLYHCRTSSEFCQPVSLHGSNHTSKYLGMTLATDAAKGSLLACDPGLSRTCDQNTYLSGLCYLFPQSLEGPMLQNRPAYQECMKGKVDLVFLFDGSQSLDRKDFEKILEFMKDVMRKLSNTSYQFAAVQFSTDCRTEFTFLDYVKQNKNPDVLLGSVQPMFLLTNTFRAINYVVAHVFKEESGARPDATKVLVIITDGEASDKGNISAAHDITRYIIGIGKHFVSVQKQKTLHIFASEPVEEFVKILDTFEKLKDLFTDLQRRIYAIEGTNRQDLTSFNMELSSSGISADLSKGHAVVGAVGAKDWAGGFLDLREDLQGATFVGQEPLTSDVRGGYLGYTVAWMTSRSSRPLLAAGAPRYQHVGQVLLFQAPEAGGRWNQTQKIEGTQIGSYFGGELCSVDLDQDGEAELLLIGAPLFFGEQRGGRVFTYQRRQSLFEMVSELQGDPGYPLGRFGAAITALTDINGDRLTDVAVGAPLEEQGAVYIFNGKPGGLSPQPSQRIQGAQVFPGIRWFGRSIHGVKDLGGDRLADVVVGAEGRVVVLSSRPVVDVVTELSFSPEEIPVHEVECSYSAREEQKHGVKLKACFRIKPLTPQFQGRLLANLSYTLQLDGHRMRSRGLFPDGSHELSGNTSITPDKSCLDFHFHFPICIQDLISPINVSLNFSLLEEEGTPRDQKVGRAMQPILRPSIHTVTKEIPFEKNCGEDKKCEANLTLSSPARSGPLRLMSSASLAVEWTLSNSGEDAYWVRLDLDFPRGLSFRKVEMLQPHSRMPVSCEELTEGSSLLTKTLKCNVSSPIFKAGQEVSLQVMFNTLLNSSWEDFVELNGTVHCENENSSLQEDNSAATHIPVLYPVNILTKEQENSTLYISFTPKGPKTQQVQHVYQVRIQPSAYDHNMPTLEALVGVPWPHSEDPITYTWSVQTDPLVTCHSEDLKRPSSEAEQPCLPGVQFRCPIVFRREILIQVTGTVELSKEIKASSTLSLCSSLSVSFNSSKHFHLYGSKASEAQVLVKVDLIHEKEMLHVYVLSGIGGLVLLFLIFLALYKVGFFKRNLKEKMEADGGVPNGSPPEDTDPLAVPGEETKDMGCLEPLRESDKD
T2 sequence (P11835 24-771, chain 2 of 2): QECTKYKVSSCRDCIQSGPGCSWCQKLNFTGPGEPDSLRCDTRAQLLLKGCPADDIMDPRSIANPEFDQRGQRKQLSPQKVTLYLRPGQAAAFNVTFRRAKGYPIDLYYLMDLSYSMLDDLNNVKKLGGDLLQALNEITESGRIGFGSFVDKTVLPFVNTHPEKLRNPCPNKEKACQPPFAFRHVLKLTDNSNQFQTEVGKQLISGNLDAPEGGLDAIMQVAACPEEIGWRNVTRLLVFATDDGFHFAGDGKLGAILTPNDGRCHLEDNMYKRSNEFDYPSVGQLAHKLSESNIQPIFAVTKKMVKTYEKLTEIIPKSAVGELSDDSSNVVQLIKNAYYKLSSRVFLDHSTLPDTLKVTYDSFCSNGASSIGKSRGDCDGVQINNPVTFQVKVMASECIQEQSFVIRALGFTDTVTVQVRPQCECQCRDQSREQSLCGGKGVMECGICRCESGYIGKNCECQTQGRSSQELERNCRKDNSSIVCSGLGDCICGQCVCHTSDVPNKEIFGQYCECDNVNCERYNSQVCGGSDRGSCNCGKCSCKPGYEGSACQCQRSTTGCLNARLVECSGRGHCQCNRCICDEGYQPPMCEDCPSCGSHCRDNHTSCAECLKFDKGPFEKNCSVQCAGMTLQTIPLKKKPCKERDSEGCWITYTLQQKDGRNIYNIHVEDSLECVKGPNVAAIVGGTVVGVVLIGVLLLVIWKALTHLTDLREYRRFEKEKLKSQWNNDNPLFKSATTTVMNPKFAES
T1 sequence (P20701 other isoform, or with tags, fused parts or gaps limits assumed, chain 1 of 2): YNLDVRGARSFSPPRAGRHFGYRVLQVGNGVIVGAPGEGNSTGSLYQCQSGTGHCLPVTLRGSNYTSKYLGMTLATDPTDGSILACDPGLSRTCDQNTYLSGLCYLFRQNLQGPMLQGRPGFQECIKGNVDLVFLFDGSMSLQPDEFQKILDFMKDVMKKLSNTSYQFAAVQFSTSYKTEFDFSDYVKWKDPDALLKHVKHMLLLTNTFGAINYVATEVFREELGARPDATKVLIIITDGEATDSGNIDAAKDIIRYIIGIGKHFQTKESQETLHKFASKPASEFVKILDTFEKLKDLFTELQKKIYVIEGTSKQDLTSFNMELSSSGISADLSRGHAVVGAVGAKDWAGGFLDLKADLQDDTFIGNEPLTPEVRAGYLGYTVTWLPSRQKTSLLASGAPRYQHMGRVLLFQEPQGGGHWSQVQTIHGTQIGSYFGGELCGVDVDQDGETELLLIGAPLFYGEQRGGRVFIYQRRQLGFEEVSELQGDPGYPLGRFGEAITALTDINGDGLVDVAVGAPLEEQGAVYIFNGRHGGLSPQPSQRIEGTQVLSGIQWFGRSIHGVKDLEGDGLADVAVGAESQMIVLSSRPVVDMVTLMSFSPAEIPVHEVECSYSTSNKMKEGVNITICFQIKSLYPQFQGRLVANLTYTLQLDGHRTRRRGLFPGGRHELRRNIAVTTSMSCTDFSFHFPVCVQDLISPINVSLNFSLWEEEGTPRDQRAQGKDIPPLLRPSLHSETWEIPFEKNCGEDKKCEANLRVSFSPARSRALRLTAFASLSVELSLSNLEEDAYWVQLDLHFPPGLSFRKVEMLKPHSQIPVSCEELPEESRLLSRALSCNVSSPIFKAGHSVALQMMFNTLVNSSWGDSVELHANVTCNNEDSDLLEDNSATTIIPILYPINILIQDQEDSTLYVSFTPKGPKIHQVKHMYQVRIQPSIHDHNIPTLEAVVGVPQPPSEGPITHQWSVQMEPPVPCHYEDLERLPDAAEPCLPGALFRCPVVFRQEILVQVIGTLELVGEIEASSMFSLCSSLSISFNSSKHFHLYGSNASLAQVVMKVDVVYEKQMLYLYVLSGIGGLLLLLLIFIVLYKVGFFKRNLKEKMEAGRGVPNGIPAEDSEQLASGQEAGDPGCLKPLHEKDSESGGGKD
T1 sequence (P05107 other isoform, or with tags, fused parts or gaps limits assumed, chain 2 of 2): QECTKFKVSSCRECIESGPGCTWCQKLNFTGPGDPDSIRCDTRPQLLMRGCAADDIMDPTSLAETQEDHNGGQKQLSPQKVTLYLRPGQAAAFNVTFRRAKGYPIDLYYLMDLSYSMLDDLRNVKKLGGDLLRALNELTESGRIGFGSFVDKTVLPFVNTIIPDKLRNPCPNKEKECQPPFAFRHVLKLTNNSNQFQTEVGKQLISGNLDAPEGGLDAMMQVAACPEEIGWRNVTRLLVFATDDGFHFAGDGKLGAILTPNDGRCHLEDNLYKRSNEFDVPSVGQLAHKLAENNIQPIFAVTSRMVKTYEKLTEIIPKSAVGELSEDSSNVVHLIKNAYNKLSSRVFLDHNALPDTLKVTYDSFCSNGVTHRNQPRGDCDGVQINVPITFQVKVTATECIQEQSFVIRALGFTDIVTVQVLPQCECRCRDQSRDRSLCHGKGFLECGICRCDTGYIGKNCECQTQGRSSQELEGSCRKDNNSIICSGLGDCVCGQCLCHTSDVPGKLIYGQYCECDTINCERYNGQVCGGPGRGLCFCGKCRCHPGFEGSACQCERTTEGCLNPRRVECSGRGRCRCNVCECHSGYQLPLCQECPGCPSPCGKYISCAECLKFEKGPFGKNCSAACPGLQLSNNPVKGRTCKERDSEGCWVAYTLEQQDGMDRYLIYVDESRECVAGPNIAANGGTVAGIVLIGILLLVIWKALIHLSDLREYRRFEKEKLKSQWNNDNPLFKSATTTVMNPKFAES

B1: D2-57 IgG1 (antibody, V domains shown)
VH: EVQLLESGGGLVQPGGSLRLSCAASGFTFSRYVMWWVRQAPGKGLEWVSYIWPSGGNTYYADSVKGRFTISRDNSKNTLYLQMNSLRAEDTAVYYCASSYDFWSNAFDIWGQGTMVTVSS
VL: DIQMTQSPSSLSASVGDRVTITCRASQSIGSYLNWYQQKTGKAPKALIYAASSLQSGVPSRFSGSGSGTDFTLTISSLQLEDFATYYCQQSYSTPSFGQGTKVEIKR
By IC50 is commonly meant the midpoint of a concentration-inhibition curve. A low value points to higher potency. In the case of B1, the IC50 in test [1] amounted to 0.54 nM.

B2: DX-2001 (germlined variant of D2-57, IgG4) (antibody, V domains shown)
VH: EVQLLESGGGLVQPGGSLRLSCAASGFTFSRYVMWWVRQAPGKGLEWVSYIWPSGGNTYYADSVKGRFTISRDNSKNTLYLQMNSLRAEDTAVYYCASSYDFWSNAFDIWGQGTMVTVSS
VL: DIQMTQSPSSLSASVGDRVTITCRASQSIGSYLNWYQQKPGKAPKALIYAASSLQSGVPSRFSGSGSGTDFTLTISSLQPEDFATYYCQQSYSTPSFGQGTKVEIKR
Take B2: the binding result in test [2] is given as “no binding”; in the test with rabbit LFA-1 on PBMCs it was “no binding (tested: 10 µg/ml)”.

Values taken from patent US20080069777A1 (CBR INSTITUTE FOR BIOMEDICAL RESEARCH, published 2008).
